These results are taken from patent US20190031764A1 (Janssen / Centocor, published 2019).

The labels stand for the following.
T1: Biotinylated human TIM3-Fc fusion from R&D systems (human, UniProt Q8TDQ0 22-200, biotinylated (site not stated))
T1 construct: Bought reagent; also called CD366; not shown: Fc part of the bought fusion
T1 sequence (looked up): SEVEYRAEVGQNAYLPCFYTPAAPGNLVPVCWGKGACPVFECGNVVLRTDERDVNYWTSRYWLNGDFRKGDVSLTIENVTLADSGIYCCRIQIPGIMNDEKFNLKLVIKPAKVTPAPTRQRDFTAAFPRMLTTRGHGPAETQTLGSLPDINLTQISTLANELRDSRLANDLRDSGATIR

B1: S84D variant of PD1B244 (antibody, V domains shown)
VH: QVQLVQSGAEVKKPGSSVKVSCKASGGTFSSYAISWVRQAPGQGLEWMGGIIPIFDTANYAQKFQGRVTITADESTSTAYMELDSLRSEDTAVYYCARPGLAAAYDTGSLDYWGQGTLVTVSS
VL: EIVLTQSPATLSLSPGERATLSCRASQSVRSYLAWYQQKPGQAPRLLIYDASNRATGIPARFSGSGSGTDFTLTISSLEPEDFAVYYCQQRNYWPLTFGQGTKVEIK
notes: Kabat position 82a; also called PD1 S84D variant; PD1H170 S84D
B2: S88D variant of PD1B244 (antibody, V domains shown)
VH: QVQLVQSGAEVKKPGSSVKVSCKASGGTFSSYAISWVRQAPGQGLEWMGGIIPIFDTANYAQKFQGRVTITADESTSTAYMELSSLRDEDTAVYYCARPGLAAAYDTGSLDYWGQGTLVTVSS
VL: EIVLTQSPATLSLSPGERATLSCRASQSVRSYLAWYQQKPGQAPRLLIYDASNRATGIPARFSGSGSGTDFTLTISSLEPEDFAVYYCQQRNYWPLTFGQGTKVEIK
notes: Kabat position 84; also called PD1 S88D variant; PD1H170 S88D
B3: S75D variant of PD1B244 (antibody, V domains shown)
VH: QVQLVQSGAEVKKPGSSVKVSCKASGGTFSSYAISWVRQAPGQGLEWMGGIIPIFDTANYAQKFQGRVTITADEDTSTAYMELSSLRSEDTAVYYCARPGLAAAYDTGSLDYWGQGTLVTVSS
VL: EIVLTQSPATLSLSPGERATLSCRASQSVRSYLAWYQQKPGQAPRLLIYDASNRATGIPARFSGSGSGTDFTLTISSLEPEDFAVYYCQQRNYWPLTFGQGTKVEIK
notes: Kabat position 74; also called PD1 S75D variant; PD1H170 S75D
B4: A88D variant of TIMB337 (antibody, V domains shown)
VH: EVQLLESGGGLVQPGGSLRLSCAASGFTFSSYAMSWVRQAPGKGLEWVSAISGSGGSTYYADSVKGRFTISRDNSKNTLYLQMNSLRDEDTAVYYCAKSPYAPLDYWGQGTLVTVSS
VL: EIVLTQSPATLSLSPGERATLSCRASQSVNDYLAWYQQKPGQAPRLLIYDASNRATGIPARFSGSGSGTDFTLTISSLEPEDFAVYYCQQGGHAPITFGQGTKVEIK
notes: Kabat position 84; also called TIM3 A88D variant; TM3H24 A88D
B5: N84D variant of TIMB337 (antibody, V domains shown)
VH: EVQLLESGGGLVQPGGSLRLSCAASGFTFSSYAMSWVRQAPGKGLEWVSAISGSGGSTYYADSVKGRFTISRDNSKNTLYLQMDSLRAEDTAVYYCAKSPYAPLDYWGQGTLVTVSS
VL: EIVLTQSPATLSLSPGERATLSCRASQSVNDYLAWYQQKPGQAPRLLIYDASNRATGIPARFSGSGSGTDFTLTISSLEPEDFAVYYCQQGGHAPITFGQGTKVEIK
notes: Kabat position 82a; also called TIM3 N84D variant; TM3H24 N84D
B6: S75D variant of TIMB337 (antibody, V domains shown)
VH: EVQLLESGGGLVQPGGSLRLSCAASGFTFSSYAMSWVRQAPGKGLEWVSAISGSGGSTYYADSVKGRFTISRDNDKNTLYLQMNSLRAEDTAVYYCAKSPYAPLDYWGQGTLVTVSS
VL: EIVLTQSPATLSLSPGERATLSCRASQSVNDYLAWYQQKPGQAPRLLIYDASNRATGIPARFSGSGSGTDFTLTISSLEPEDFAVYYCQQGGHAPITFGQGTKVEIK
notes: Kabat position 74; also called TIM3 S75D variant; TM3H24 S75D

The target in the first test is T2, human PD1 antigen (human, UniProt Q15116 25-167, limits assumed).
T2 construct: Injected as analyte (100 nM-0.4 nM) in the ProteOn SPR assay; construct not described; also called CD279
T2 sequence (Q15116 25-167 limits assumed): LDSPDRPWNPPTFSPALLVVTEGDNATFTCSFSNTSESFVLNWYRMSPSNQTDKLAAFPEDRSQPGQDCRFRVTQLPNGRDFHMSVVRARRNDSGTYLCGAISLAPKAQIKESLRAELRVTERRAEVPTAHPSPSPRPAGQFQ
Nature of the test: Ag Binding column; PD1 SPR.
On to B1, for which the binding result was “binds”.
As to B2, the binding result was “binds”.
On to B3, for which the binding result was “binds”.

Another test has as its target T1, Biotinylated human TIM3-Fc fusion from …. Nature of the test: Ag Binding column; TIM3-Fc ELISA. On the technique in general: ELISA stands for enzyme-linked immunosorbent assay.
With B4, the binding result is reported as “binds”.
B5: the binding result is “binds”.
As to B6, the binding result is on record as “binds”.
